Laboratory results as given in patent US20090053138A1, “Stabilized Aptamers to Platelet Derived Growth Factor and their Use as Oncology Therapeutics” (priority 2002, published 2009).
Strand notation (5' to 3'): a small letter for the sugar, then the base; units joined by * are phosphorothioate-linked, units joined directly phosphodiester-linked; [ ] holds rarer units or linkages, { } end groups; capitals alone tell only the bases. r = 2'-OH (RNA); f = 2'-fluoro

Assays:
[1] = target: T1, PDGF-AA (human short form) (Homo sapiens, UniProt P04085); assay: Dot blot binding assay, PDGF-AA human short form; conditions: in the presence of 0.1 mg/mL tRNA
T1 construct: purchased Roche Biomedical
Experimental: (§1) Dot blot binding assays were performed throughout the selection to monitor the protein binding affinity of the pool. Trace ^32P-labeled RNA was combined with PDGF-AA and incubated at room temperature for 30 min in 1×SHMCK plus 0.1 mg/ml tRNA for a final volume of 20 μl. The reaction was added to a dot blot apparatus (Schleicher and Schuell Minifold-1 Dot Blot, Acrylic), assembled (from top to bottom) with nitrocellulose, nylon, and gel blot membranes. RNA that is bound to protein is captured on the nitrocellulose filter, whereas the non-protein bound RNA is captured on the nylon filter. When a significant positive ratio of binding of RNA in the presence of PDGF-AA versus in the absence of PDGF-AA was seen, the pool was cloned using the TOPO TA cloning kit (Invitrogen, Carlsbad. CA) according to the manufacturer's instructions. The Round 10 pool template was cloned, and 17 sequences were obtained. Only five different sequences were seen, with two major families and one unique sequence (not of the two families). […] Clones with high affinity to PDGF-AA were prepped and screened for functionality in cell-based assays.

PDGF-AA (rat) = PDGF-AA (rat) (Rattus norvegicus, UniProt P28576); assay: Dot blot binding assay, PDGF-AA rat; conditions: in the presence of 0.1 mg/mL tRNA
Experimental: as §1

PDGF-AA = target: T2, PDGF-AA (Homo sapiens, UniProt P04085); assay: 3T3 proliferation assay (PDGF-AA induced); assay type: cell-based; conditions: aptamer 0-1 uM, PDGF-AA 50 ng/ml
T2 construct: purchased R&D Systems
Experimental: The assay was set up as previously described, using a titration of PDGF-AA aptamer (0-1 uM) against a constant concentration (50 ng/ml) of PDGF-AA protein (R&D Systems).

| Molecule | Kd [1] | Kd (PDGF-AA (rat)) | inhibition of PDGF-AA induced 3T3 cell proliferation (PDGF-AA) | PDGF-AA (human short form) Kd (nM) [1] | PDGF-AA (rat) Kd (nM) (PDGF-AA (rat)) |
| --- | --- | --- | --- | --- | --- |
| ARX33P1.E5: PDGF-AA (short form) aptamer, 2′-fluoro pyrimidines (SEQ ID NO: 79) (nucleic acid) rGrGrGrArArArArGfCrGrArAfUfCrAfUrAfCrAfCrArArGrAfCfCrGrGrGrArAfCfUfCrGrGrAfUfUfCfUfUfCrAfCrAfUrGfUrGrGrAfUrGfUrGrAfUfCrArGfUrAfUrGfCfUfCfCrGfCfCrArGrArGrAfCfCrArAfCfCrGrArGrArA | 117 nM | 57.4 nM | do inhibit PDGF-AA induced 3T3 cell proliferation, but are not very potent | – | – |
| ARX33P1.D1: PDGF-AA selection clone, 2′-fluoro pyrimidines (SEQ ID NO: 77) (nucleic acid, aptamer) rGrGrGrArArArArGfCrGrArAfUfCrAfUrAfCrAfCrArArGrAfUfCrGfCfCrArGrGrArGfCrArArArGfUfCrAfCrGrGrArGrGrArGfUrGrGrGrGrGfUrAfCrGrArAfUrGfCfUfCfCrGfCfCrArGrArGrAfCfCrArAfCfCrGrArGrArA | – | – | – | N.B. | N.B. |
| ARX33P1.E11: PDGF-AA selection clone, 2′-fluoro pyrimidines (SEQ ID NO: 81) (nucleic acid, aptamer) rGrGrGrArArArArGfCrGrArAfUfCrAfUrAfCrAfCrArArGrArGrArGfUrGrGrArGrGrArGrGfUrAfUrGfUrAfUrGrGfUfUfUrGfUrGfCrGfUfCfUrGrGfUrGfCrGrGfUrGfCfUfCfCrGfCfCrArGrArGrAfCfCrArAfCfCrGrArGrArA | – | – | – | N.B. | N.B. |
| ARX33P1.D2: PDGF-AA (short form) aptamer, 2′-fluoro pyrimidines (SEQ ID NO: 78) (nucleic acid) rGrGrGrArArArArGfCrGrArAfUfCrAfUrAfCrAfCrArArGrAfCfCrGrGrGrArAfCfUfCrGrGrAfUfUfCfUfUfCrGfCrAfUrGfUrGrGrAfUrGfCrGrAfUfCrArGfUrAfUrGfCfUfCfCrGfCfCrArGrArGrAfCfCrArAfCfCrGrArGrArA | 104 nM | 51.7 nM | do inhibit PDGF-AA induced 3T3 cell proliferation, but are not very potent | – | – |
| ARX33P1.E10: PDGF-AA (short form) aptamer, 2′-fluoro pyrimidines (SEQ ID NO: 80) (nucleic acid) rGrGrGrArArArArGfCrGrArAfUfCrAfUrAfCrAfCrArArGrAfCfCrGrGrArArAfCfUfCrGrGrAfUfUfCfUfUfCrGfCrAfUrGfUrGrGrAfUrGfCrGrAfUfCrArGfUrAfUrGfCfUfCfCrGfCfCrArGrArGrAfCfCrArAfCfCrGrArGrArA | 133 nM | 47.1 nM | do inhibit PDGF-AA induced 3T3 cell proliferation, but are not very potent | – | – |
